This note sets out measurements from patent US20200247855A1, “THERAPY AND DIAGNOSTICS” (OXFORD UNIVERSITY INNOVATION LIMITED, priority 2017, published 2020).

Experiment in all cases: Yeast surface display (YSD) FACS binding
On the technique in general: Flow cytometry measures light scatter and fluorescence of single cells or particles in a stream.

One assay addresses T1, CCL25_HUMAN (Homo sapiens, UniProt O15444).
T1 sequence (O15444 24-150): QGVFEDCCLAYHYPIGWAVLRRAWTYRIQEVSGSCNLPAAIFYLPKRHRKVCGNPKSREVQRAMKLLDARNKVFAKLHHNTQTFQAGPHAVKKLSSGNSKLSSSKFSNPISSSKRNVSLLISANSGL
In a few lines: (§1)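 Yeast clones displaying tick peptides were re-tested by FACS with labelled chemokine. Binding = % of peptide-expressing yeast above a background threshold set with streptavidin-Alexa647 alone; the mean percent shift was used where several clones were isolated. Confirmed binding ("YES") required >3-fold over background mean fluorescence intensity.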

A further assay addresses T2, CCL8_HUMAN (Homo sapiens, UniProt P80075).
T2 sequence (P80075 24-99): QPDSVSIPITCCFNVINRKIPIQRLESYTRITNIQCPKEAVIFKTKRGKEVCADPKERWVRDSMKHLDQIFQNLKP
In a few lines: as §1

In another assay the target is T3, CCL5_HUMAN (Homo sapiens, UniProt P13501).
T3 sequence (P13501 24-91): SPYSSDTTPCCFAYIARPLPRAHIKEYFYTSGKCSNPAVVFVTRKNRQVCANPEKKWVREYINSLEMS
In a few lines:
as §1

A further assay has as its target T4, CCL18_HUMAN (Homo sapiens, UniProt P55774).
T4 sequence (P55774 21-89): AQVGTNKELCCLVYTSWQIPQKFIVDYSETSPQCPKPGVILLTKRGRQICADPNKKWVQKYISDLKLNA
The essentials: as §1

The next assay concerns the target CCL11_HUMAN (Homo sapiens, UniProt P51671). In a few lines:
as §1

The next assay addresses T5, CCL17_HUMAN (Homo sapiens, UniProt Q92583).
T5 sequence (Q92583 24-94): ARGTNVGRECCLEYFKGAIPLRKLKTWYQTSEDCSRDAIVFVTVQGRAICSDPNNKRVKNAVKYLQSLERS
In a few lines:
as §1

Another assay addresses CXCL12_HUMAN (Homo sapiens, UniProt P48061). Conditions: yeast surface display. The essentials: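 Yeast clones displaying tick peptides were re-tested by FACS with labelled chemokine detected by streptavidin-Alexa conjugate. Binding was scored as % of peptide-expressing cells above a background set with streptavidin-Alexa alone, averaged over independent clones. In the screen tables, >3-fold over background mean fluorescence intensity was scored as binding.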

Sequence of CCL11_HUMAN (P51671 24-97): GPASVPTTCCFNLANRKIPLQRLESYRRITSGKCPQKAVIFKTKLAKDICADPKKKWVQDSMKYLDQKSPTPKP
Sequence of CXCL12_HUMAN (P48061 22-93): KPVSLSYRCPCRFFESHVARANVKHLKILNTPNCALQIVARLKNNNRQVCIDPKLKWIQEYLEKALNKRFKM

B1: P1220_IXORI: tick CKBP, Ixodes ricinus (protein, listed as Ixodes ricinus)
chain: GSTPSAMKTEDILKVLGSTSSLENHTDSSHCRYQELLDITKNIENAGFLAINCQRSCPNGKQTMVEGYGCIFKIKHATKRGKVKVKEGSCRKGACVRGSTRPPWRLLVLLGESKEEEFL
With B1, the “Binding to CCL25_HUMAN, YSD” value in the assay with CCL25_HUMAN is “YES (An arbitrary threshold of >3 fold over background mean fluorescence intensity was chosen to describe confirmed re-tests. Where binding was detected data are indicated as “YES”)”.

B2: P698_RHISA: tick CKBP, Rhipicephalus sanguineus (protein, listed as Rhipicephalus sanguineus)
chain: NEDDSSDYYDASPMNCSSMSVNSTMGWLSMNCTMSCNGTTFPLSNSTHCFHSYTNLTVQSRMETMTYNCSVGTCSNGTCVENGTTTTCW
In the case of B2, in the assay with CCL8_HUMAN, the “Binding to CCL8_HUMAN, YSD” value is “YES (An arbitrary threshold of >3 fold over background mean fluorescence intensity was chosen to describe confirmed re-tests. Where binding was detected data are indicated as “YES”)”. The “Binding to CCL5_HUMAN, YSD” value with CCL5_HUMAN was “YES (An arbitrary threshold of >3 fold over background mean fluorescence intensity was chosen to describe confirmed re-tests. Where binding was detected data are indicated as “YES”)”.

B3: P1011_AMBTR: tick CKBP, Amblyomma triste (protein)
chain: EKDTPKNIPGCEDAGTTAAPPADNPKHYAVYTDKNGCTFKVIGTWMTKEDHRRLPVSLRRVRASSGRVKLPASCQKICKHSVKKFPEGTPCRLVTRDPIKGKNHIKNGCIRGYCSSGVCVSDNRSISCYVLPNNTELTSPSGSFAE
modifications: Amblyomma triste
For the molecule B3, the “Binding to CCL25_HUMAN, YSD” value with CCL25_HUMAN is recorded as “YES (An arbitrary threshold of >3 fold over background mean fluorescence intensity was chosen to describe confirmed re-tests. Where binding was detected data are indicated as “YES”)”. The “Binding to CCL18_HUMAN, YSD” value in the assay with CCL18_HUMAN is “YES (An arbitrary threshold of >3 fold over background mean fluorescence intensity was chosen to describe confirmed re-tests. Where binding was detected data are indicated as “YES”)”. For the same molecule, the “Binding to CCL11_HUMAN, YSD” value in the assay with CCL11_HUMAN is given as “YES (An arbitrary threshold of >3 fold over background mean fluorescence intensity was chosen to describe confirmed re-tests. Where binding was detected data are indicated as “YES”)”. The “Binding to CCL17_HUMAN, YSD” value with CCL17_HUMAN was “YES (An arbitrary threshold of >3 fold over background mean fluorescence intensity was chosen to describe confirmed re-tests. Where binding was detected data are indicated as “YES”)”. In the assay with CCL5_HUMAN, the “Binding to CCL5_HUMAN, YSD” value is given as “YES (An arbitrary threshold of >3 fold over background mean fluorescence intensity was chosen to describe confirmed re-tests. Where binding was detected data are indicated as “YES”)”.

B4: P1215_AMBPA: tick CKBP, Amblyomma parvum (protein, listed as Amblyomma parvum)
chain: KTDTKNAAGELPPKVVIPGCEDPATTKAPLPDEPPYYGITIDKDGCQRKVLGSSQRQQRKVQNGRKLDGKKRGRRPVFVDLELTVDCKRKCNGTYSQLPDGENCLVSDGYPYGRWGTIKGGCYQGNCSSGQCHRGEKKVNCYLPKNITNDVPKSLNLAE
As for B4, the “Binding to CCL18_HUMAN, YSD” value in the assay with CCL18_HUMAN was “YES (An arbitrary threshold of >3 fold over background mean fluorescence intensity was chosen to describe confirmed re-tests. Where binding was detected data are indicated as “YES”)”. Moreover, the “Binding to CCL11_HUMAN, YSD” value with CCL11_HUMAN is reported as “YES (An arbitrary threshold of >3 fold over background mean fluorescence intensity was chosen to describe confirmed re-tests. Where binding was detected data are indicated as “YES”)”. Besides, the “Binding to CXCL12_HUMAN, YSD” value with CXCL12_HUMAN is recorded as “YES (An arbitrary threshold of >3 fold over background mean fluorescence intensity was chosen to describe confirmed re-tests. Where binding was detected data are indicated as “YES”)”. Besides, the “Binding to CCL5_HUMAN, YSD” value with CCL5_HUMAN is given as “YES (An arbitrary threshold of >3 fold over background mean fluorescence intensity was chosen to describe confirmed re-tests. Where binding was detected data are indicated as “YES”)”.
